# Test results: the supplement of paper PMC9170038
# Columns and labels:
# MS2 coat protein [1] = assay: apparent KD of MS2 coat protein, switch ON state; designed switch direction (-1 OFF switch, 1 ON switch): 1; higher = weaker reporter binding; details: FMN input: 0 or 200 uM; Eterna round: R93 (includes R88 designs)
# Summary of the method: (§1)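 Apparent KD is reported per design as the median of normalised binding-curve fits across its clusters. The RNA switches were made by on-chip transcription from Illumina sequencing clusters. SNAP-549-labelled MS2 coat protein was then added in twofold steps (0.7 or 1.5 nM to 3 µM; 0.8–1.5 h to 10–20 min per step) in 100 mM Tris-HCl pH 7.5, 80 mM KCl, 4 mM MgCl2, without or with constant ligand.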
# MS2 coat protein [2] = assay: apparent KD of MS2 coat protein, switch OFF state (with FMN for OFF switches, without FMN for ON switches); designed switch direction (-1 OFF switch, 1 ON switch): 1; higher = weaker reporter binding; details: FMN input: 0 or 200 uM; Eterna round: R93 (includes R88 designs)
# Summary of the method: as §1
Sequence,apparent KD of MS2 coat protein (MS2 coat protein [1]) [nM],apparent KD of MS2 coat protein (MS2 coat protein [2]) [nM]
AGAAAUAAAACACAGGAUAUCCAAAAGAAAACAUGAGGAUCACCCAUGUAAAGAAAAUAAAAAUGGGAGAAGGGUGAAAAUAAGA [Mat - Same State 2 - JL mod - D15],19.9,31.5
CAUCAUGCGCCUAAGGAUAUGUCUCACAAGACAUGAGGAUCACCCAUGUAGAAUAAAUAAAUGAUGCAGAAGGUGGAGCGCAUAC [Beusesce],61.9,507
AAAUAAAUGACUGAGGAUAUAUCGAAGAAGACAUGAGGAUCACCCAUGUGAUAAUAAAAAGGGUGGUAGAAGGUAGUCAACAAAC [Mod 8 of Pariah 4 by Hyphema in Round 1],133,122
AAAAAAAAUGUGUAGGAUAUCAGUAAAAAUACAUGAGGAUCACCCAUGUUCAAAAAAAAAAAAACUGAGAAGGACACGGAUGGUCC [Design 1],35.5,42.6
AAGAAACAUGAGGAUCACCCAUGUGAGAAUAUGGGAGGAUAUACAAGGACGUAAGUCAAGGUAGAAGGCCUAAGAA [Mat - Same State 1 - Meechl mod - D139],25.8,200
AACAAUCUAUCUGAGGAUAUCAUGUAAAAGACAUGAGGAUCACCCAUGUUGCAGGAAACUGCUCAUGAGAAGGCAGAUAGAUUGA [SS2: 1125],12.8,13.8
AAUCCAAAUAGUUAGGAUAUGGGAAUUAAGACAUGAGGAUCACCCAUGUCAUUAAAACAAGUUAACCAGAAGGGACAGGGUGAAA [JR_SS002_Sub208],14.7,26.6
AAAAAAUAAAAAAAGGAUAUACUGCUAGAAACAUGAGGAUCACCCAUGUAACUAGCAGUAAUAAAAAAGAAGGAAAAAUAAAAAA [SS2: MS2 35],1.15,3.61
AAAAAAAAAAGUCAGGAUAUACAAAUUUUUACAUGAGGAUCACCCAUGUUAAAGAAAAAAAAAAAGUAGAAGGGACAAAAAAAAAA [Same State 2 - Omei 2],11.1,15.4
AAGAAACAUGAGGAUCACCCAUGUGAUAAUAUGGGAGGAUAUACAAAGACGAAAGACGAAGUAGAAGGCCUAAGAA [Garnet 47],56.3,114
AGGAGACAUGAGGAUCACCCAUGUGAGAAGAGGCGAGGAUAUCGAAAGAAAGAAGAGAAACGAGAAGGCGCGAGAC [salish99-SS1-029],15.4,33.6
AAAAAACAUGAGGAUCACCCAUGUGAAAAUAUGGGAGGAUAUACAAAGACGAGAGUCAAAGUAGAAGGCCUAAAAA [Mat - Same State 1 - Eli mod - D87],26.6,139
AAAAUACAUGAGGAUCACCCAUGUGAAAAUAUGGGAGGAUAUACAAAAACGAAAGUAAAAGUAGAAGGCCUAAAAA [SS! 1 MT 1],37.8,185
CAUCAUGCGCCUAAGGAUAUGUCUCACAAGACAUGAGGAUCACCCAUGUAGAAUAAAUAAACGAUGCAGAAGGUGGAGCGCAUGA [Cexeri],40.2,222
"AGGAAACAUGAGGAUCACCCAUGUAAAAAUAUGGAAGGAUAUGGAAACACGAAAGUGAAACCAGAAGGUUCAAAAA [77%, Mat - Mod of Eli, 22]",18.5,24.7
AGGAGACAUGAGGAUCACCCAUGUGAGAAGAGGCGAGGAUAUCGAAAAAAAAAAAGAAAACGAGAAGGCGCGAGAA [salish99-SS1-014],244,59.9
"AUAAAAGAAGCGAAGGAUAUCCAAAAUCCAACAUGAGGAUCACCCAUGUAAAGAAAGAAAAAAUGGGAGAAGGUCGCAAAGAAUA [73%, More Fisker Same State 2, D3, 11]",13.5,31.3
AGAAAUAAAAUGGAGGAUAUCCAAAAGAAAACAUGAGGAUCACCCAUGUAAAAGAAAAUAAAAUGGGAGAAGGCCACAAAUAAAG,26.8,31.4
AAAGACAUGGUGCAGGAUAUAUUAAUAGUCACAUGAGGAUCACCCAUGUUCAGAUAUCUGAACGAGUAGAAGGGCGAUGAAAAAA [SameState2 Malc#5],88.9,61.9
AGGAGACAUGAGGAUCACCCAUGUGAGAAGAGGCGAGGAUAUCGAAAGAAAGAAAGAAAACGAGAAGGCGCGAGAA [salish99-SS1-016],28,42.8
AAAAAAAAAGUGCAGGAUAUCCUCAUGGCUACAUGAGGAUCACCCAUGUGAAGAAAAGCACAUGAGGAGAAGGGCACAAAAAAAAA [Balance beam],12.3,23.1
UCAGUGCCGACGAAGGAUAUAGCGGGUGAGACAUGAGGAUCACCCAUGUAUGCAGAACUCAUCCUCUAGAAGGUUGAGACGGCAA [Onaaror],101,84.3

Sequence,apparent KD of MS2 coat protein (MS2 coat protein [1]) [nM],apparent KD of MS2 coat protein (MS2 coat protein [2]) [nM]
AAAUUACAUGAGGAUCACCCAUGUAGCGACGUGACAGGAUAUGUGGGUGAAAAUAGCAUGACAGAAGGGUCCCGUA [SameState1 Malc#40],57.8,23.1
GAAAUACAUGAGGAUCACCCAUGUUAGGUAAAACAAGGAUAUCUAGAUAAAUAAAAAUAUAGAGAAGGUGUAUAAA [JR_SS001_Sub206],20.6,25.1
"GAGAAACAUGAGGAUCACCCAUGUAGAGAUAUGGGAGGAUAUACAGAGACGAGAGUCAAAGUAGAAGGCCUAGAAG [77%, Mat - Mod of Eli - With 5 more G's]",25.5,46.4
ACGGUCAAGUGUGAGGAUAUCCAGGCUCCCACAUGAGGAUCACCCAUGUCUUAAAGGGCGUAAAGGGAGAAGGUACGAACGCCAC [Vesolees],33.2,45.3
AGAAAUAAAAGAGAGGAUAUCCAAAAUAAAACAUGAGGAUCACCCAUGUGUACGAAAGUACAAUGGGAGAAGGCUCAAAAUAAAG [80% More Helter Skelter 2 + Hairpin],1280,6.54
CAUCACGCGCCUAAGGAUAUGUCUCACAAGACAUGAGGAUCACCCAUGUAGAAUAAAUAAAUGAUGCAGAAGGUGGAGCGCAUGC [Gerixeza],134,517
AUAUAUAAAAGAUAGGAUAUACUAAAAUAAACAUGAGGAUCACCCAUGUAAAAAAAGAAACUCAUGUAGAAGGAUCAUAUAUAUA [ss2 7th],46.5,246
AAUAUACAUGAGGAUCACCCAUGUUUUGGUGGGUCAGGAUAUAAAAACAAUUACAUAAAGUUAGAAGGGACAAAUA [JR_SS001_Sub004],111,121
AUGAAAGUAACGCAGGAUAUCCAGGAUACAACAUGAGGAUCACCCAUGUACAUACGAACGUAUAAGGAGAAGGGUGGAUGAUCUUC [ss2-3],56.7,48.2
AUAAAACAUGAGGAUCACCCAUGUAGAAAUAUGGGAGGAUAUACUAGAUCGAAAGAUCUAGUAGAAGGCCUUUAUG [JL Mod of Eli 5],45.4,49.3
AGCACGGGAUUGGAGGAUAUGUUGUUUGCAACAUGAGGAUCACCCAUGUCUGAGGCUGAAAAGCAGCAGAAGGCCGAUACAACCA [SS2-1.2],43.8,367
AAAAAACAUGAGGAUCACCCAUGUAAAAAAAUGGGAGGAUAUACAAAAACGAAAGUCAAAGUAGAAGGCCUGAAAA [same state 5],19.3,172
"AGGAAACAUGAGGAUCACCCAUGUAAGAUAUAUACAGGAUAUGCGAAAAGAAACAAAGAAGCAGAAGGGUAAAAAA [75%, Ex sub1, 13]",18,25.5
"AGGAAACAUGAGGAUCACCCAUGUAUAAAAAUGGAAGGAUAUACUAAGACGAAAGUCAUAGUAGAAGGUUCAAAAA [76%, Meechl, 9]",13.1,21.1
AAAAAAAAAAAUAAGGAUAUGUGAUCGGUGACAUGAGGAUCACCCAUGUAAGGCCUCCGGGACGGGCAGAAGGUAUAAAAAAAAA [Same State2-III],491,607
UAUAGACAUGAGGAUCACCCAUGUAGAAUUAUGGGAGGAUAUACAAAGACGAGAGUCAGAGUAGAAGGCCUAGGAU [salish99-ss1-154],22.2,63.7
UAGAGACAUGAGGAUCACCCAUGUAGGAUUAUGGGAGGAUAUACAAAGACGAGAGUCAGAGUAGAAGGCCUAGGAC [salish99-ss1-136(!)],21.4,60.1
AAUAAACAUGAGGAUCACCCAUGUGGUGGCCCAUGAGGAUAUCCAUGUACAUUGUACACAGGAGAAGGCAUAGCCA [Tioredes],119,27
UUACAACAUGAGGAUCACCCAUGUAAACCCGACUAAGGAUAUGGAGUGAAAGAUAUCAUCCCAGAAGGUAGAAAUA [Istegeisis],48.2,53.3
AAUGAACAUGAGGAUCACCCAUGUUCUAAUAGUUGAGGAUAUGUGGGUGAAAAUAGCACGGCAGAAGGCGAGUGUA [SameState1 Malc#19],101,80.7
GUAAGACAUGAGGAUCACCCAUGUAUGCGUCAGCAAGGAUAUGGGAAUAAAAGACAGAAACCAGAAGGUGCUGUUG [Enqudi],26.1,153
